Results reported in doi:10.1101/2020.02.05.923433 (bioRxiv, 2020).

Target: T1, purified RASSF1 RA domain (human, UniProt Q9NS23-2 124-288)
T1 sequence: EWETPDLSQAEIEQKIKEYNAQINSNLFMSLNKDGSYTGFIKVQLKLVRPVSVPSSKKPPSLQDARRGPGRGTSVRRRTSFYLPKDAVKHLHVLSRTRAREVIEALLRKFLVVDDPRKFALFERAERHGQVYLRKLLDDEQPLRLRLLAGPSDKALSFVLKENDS
Test: ITC

Kd: 9.6 µM
B1: GEM-GDP (purified GEM used for ITC) (domain or fragment)
chain: STDSVISSESGNTYYRVVLIGEQGVGKSTLANIFAGVHDSMDSDCEVLGEDTYERTLMVDGESATIILLDMWENKGENEWLHDHCMQVGDAYLIVYSITDRASFEKASELRIQLRRARQTEDIPIILVGNKSDLVRCREVSV
